Source: article doi:10.1101/2022.09.20.508747, “Affinity-matured homotypic interactions induce spectrum of PfCSP-antibody structures that influence protection from malaria infection” (bioRxiv, 2022)
Primed or numbered codes have the meaning given here. No end group written: not given here. Biotin′ = biotin

How the values were obtained:
Conditions in all cases: both partners purified
[1] = molecular target: T1, NPNA8 peptide, biotinylated (for BLI) (Plasmodium falciparum); experiment: BLI
T1 construct: source: synthetic peptide, InnoPep Inc
T1 chain: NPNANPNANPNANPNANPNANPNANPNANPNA

[2] = molecular target: T2, NPNA4 peptide, biotinylated (for BLI) (Plasmodium falciparum); experiment: BLI
T2 construct: source: synthetic peptide, InnoPep Inc
T2 chain: NPNANPNANPNANPNA-{Biotin′}

[3] = molecular target: T3, NPNA8 peptide (for cryo-EM) (Plasmodium falciparum); experiment: cryo-EM structure
T3 construct: source: synthetic peptide, InnoPep Inc
T3 chain: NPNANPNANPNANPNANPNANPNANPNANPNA

Row | Binder | binding result [1] | binding result [2] | stoichiometry N [3] | fold higher apparent affinity than 356 [2] | fold lower apparent affinity than 239 [2]
1 | 364 Fab (Fab, V domains shown, also called mAb 364; source: ExpiCHO cells, purified (mAb Select PrismA or Capture Select, SEC)) VH: QVQLVESGGGVVQPGGSLRLSCAASGFTFSGYGMHWVRQVPGKGLEWVAIIWFDGSQKYYADSVQGRFTISRDNSKKTLFLRMNSLRAEDTAVYYCAKVHDDEPTQDYWGQGTLVTVSS VL: DIQMTQSPSTLSASVGDRVTITCRASQGISTSLAWYQQKPGKAPKLLIYKASSLESGVPSRFSGSGSGTEFTLTITSLQPEDFATYYCQQYKRYWTFGQGTKVEIK | binds | binds |  |  | 
2 | 227 Fab (Fab, V domains shown, also called mAb 227; source: ExpiCHO cells, purified (mAb Select PrismA or Capture Select, SEC)) VH: QVQLVQSGGGVVQPGRSLRLSCVTSGFTFPAFGMHWVRQAPGKGLEWVAVIWYDGSKKYYADSVRGRFTISRDNSRNTLYLQMHSLRAEDTAVYYCARVKNYESSGYSQCLDYWGQGVLVTVAS VL: QSVLTQPPSVSGAPGQRVTISCTGSSSNIGAGYDVHWYQQLPGTAPKLLIYGNGNRPSGVPDRFSGSKSGTSVSLAITGLQAEDEADYYCQSYDSSLSAFVFGTGTKVTVL |  | binds | 4 Fabs per NPNA8 peptide |  | 
3 | 337 Fab (Fab, V domains shown, also called mAb 337; source: ExpiCHO cells, purified (mAb Select PrismA or Capture Select, SEC)) VH: QVQLVESGGGVVQPGRSLRLSCAASGFSFSTYGMHWVRQAPGKGLEWVALIWHDGSKKFYSESVRGRFTISRDNSMDTLYLQMSSLRAEDTAVYYCARDGADYFDSTGGAFDIWGQGTMVIVSS VL: EIVMTQSPATLSVSPGERATLSCRASQSVSSNLAWYQQKPGQAPRLLIYGASTRATGIPARFSGSGSGTEFTLTISSLQSEDFATYYCQQYKTWWTFGQGTKVEIK | binds | binds |  |  | 
4 | 334 Fab (Fab, V domains shown, also called mAb 334; source: ExpiCHO cells, purified (mAb Select PrismA or Capture Select, SEC)) VH: QVQLVESGGGVVQPGRSLTLSCAASGFTFSNYGMHWVRQTPGKGLAWVAIIWYDGSKTYYEDSVKGRFTISRDNSKNTLYLQMNSLRVDDTAVYYCARVRHSSSRHGSAFDLWGQGTLVTVSS VL: VIQMTQSPSTLSASVGDRVTITCRASQSVSTWLAWYQQKPGQGPKLLIYEASSLESGVPSRFSGSGSGTEFTLTISSLQPDDFATYYCQQYNSYSFWTFGQGTKVEIK | binds | binds |  |  | 
5 | 356 Fab (Fab, V domains shown, also called mAb 356; source: ExpiCHO cells, purified (mAb Select PrismA or Capture Select, SEC)) VH: QVQLVESGGGVVQPGRSLRLSCAASGFTFRNFGMHWVRQTPGKGLEWVAVIWHDGSNKFYADSVEGRFTISRDNSKNMIYLQMNSLRVEDTAIYYCARDSLFYDHDNSGYYGYWGQGTLVTVSS VL: QIVMTQSPATVSVSPGERATLSCRASRSVTSKLAWYQQKPGQAPRLLIYGASTRATGIPARFSGSGSGTEFTLTISSLQSEDFAVYFCQQYNNGFTFGPGTKVDFK | binds | binds |  |  | 
6 | 356R Fab (Fab, V domains shown, also called germline-reverted 356; source: ExpiCHO cells, purified (mAb Select PrismA or Capture Select, SEC)) VH: QVQLVESGGGVVQPGRSLRLSCAASGFTFSSYGMHWVRQTPGKGLEWVAVIWHDGSNKFYADSVKGRFTISRDNSKNMIYLQMNSLRVEDTAIYYCARDSLFYDHDNSGYYGYWGQGTLVTVSS VL: EIVMTQSPATVSVSPGERATLSCRASQSVTSKLAWYQQKPGQAPRLLIYGASTRATGIPARFSGSGSGTEFTLTISSLQSEDFAVYFCQQYNNGFTFGPGTKVDFK | binds |  |  | ~2 fold | 
7 | 311 Fab (Fab, V domains shown, source: ExpiCHO cells, purified (mAb Select PrismA or Capture Select, SEC)) VH: QVQLVESGGGVVPPGRSLRLSCATSGFTFSNYGMHWVRQAPGKGLEWVAIIWYDGSRNFYAASVEGRFTISRDNSKNTLYLQMNSLRVEDTAVYYCARAAYYDTSGYGDYWGQGTLVTVSS VL: QSVLTQPPSVSGAPGQTVTISCTGGSSNIGAGYDVHWYQQLPGTAPKLLIYGNINRPSGVPDRFSGSKSGTSASLAITGLQAEDEADYYCQSYDRRLSGSWVFGGGTKLTVL | binds | binds |  |  | 
8 | 311R Fab (Fab, V domains shown, also called Fab311R; germline-reverted 311; source: ExpiCHO cells, purified (mAb Select PrismA or Capture Select, SEC)) VH: QVQLVESGGGVVPPGRSLRLSCATSGFTFSSYGMHWVRQAPGKGLEWVAIIWYDGSNKFYAASVKGRFTISRDNSKNTLYLQMNSLRVEDTAVYYCARAAYYDTSGYGDYWGQGTLVTVSS VL: QSVLTQPPSVSGAPGQTVTISCTGGSSNIGAGYDVHWYQQLPGTAPKLLIYGNINRPSGVPDRFSGSKSGTSASLAITGLQAEDEADYYCQSYDSSLSGSWVFGGGTKLTVL | binds | binds |  |  | 
9 | 239 Fab (Fab, V domains shown, also called mAb 239; source: ExpiCHO cells, purified (mAb Select PrismA or Capture Select, SEC)) VH: QVQLVESGGGVVQPGRSLRLSCAASRLTFRNFGMHWVRQTPGKGLEWVAVIWHDGSNKFYADSVEGRFTISRDNSKNTLYLQMNSLRDEDTAIYYCAKDWGGASDRVFDYWGRGTLVIVSS VL: DIQMTQSPSTLSASVGDRVTITCRASQSVSTSLAWYQQKPGKAPNLLIYQASTLYRGVPSRFSGSGSGTEFTLTIGSLQPDDFATYYCQHYNSYSRITFGQGTRLEIK | binds | binds |  |  | 
10 | 239R Fab (Fab, V domains shown, also called germline-reverted 239; source: ExpiCHO cells, purified (mAb Select PrismA or Capture Select, SEC)) VH: QVQLVESGGGVVQPGRSLRLSCAASRLTFSSYGMHWVRQTPGKGLEWVAVIWHDGSNKFYADSVKGRFTISRDNSKNTLYLQMNSLRDEDTAIYYCAKDWGGASDRVFDYWGRGTLVIVSS VL: DIQMTQSPSTLSASVGDRVTITCRASQSVSTSLAWYQQKPGKAPNLLIYQASTLYTGVPSRFSGSGSGTEFTLTIGSLQPDDFATYYCQHYNSYSRITFGQGTRLEIK | binds |  |  |  | ~2 fold
